One experiment deals with 124G2. Kind of experiment: Biacore; R&D hIL23. In general terms: SPR reads the build-up and loss of mass on a sensor chip optically.
For another experiment, the target named is 12D11. Kind of experiment: Biacore; R&D hIL23.
The target in the next experiment is 124B6. As to the kind of experiment: Biacore; R&D hIL23.
The target in a further experiment is 4E7. As to the kind of experiment: Biacore; R&D hIL23.
The target in another experiment is 124E3. As to the kind of experiment: Biacore; R&D hIL23.
The target of another experiment is 124D2. Kind of experiment: Biacore; R&D hIL23.
The target in experiment [1] is 124H2. As to the kind of experiment: Biacore; R&D hIL23.
The target in a further experiment is 124E5. As to the kind of experiment: Biacore; R&D hIL23.
For another experiment, the target named is 4D2. Kind of experiment: Biacore; R&D hIL23.
The next experiment deals with 4E3. As to the kind of experiment: Biacore; R&D hIL23.
The target in the next experiment is 12C10. Kind of experiment: Biacore; R&D hIL23.
The target in another experiment is 12F11. As to the kind of experiment: Biacore; R&D hIL23.
The target in another experiment is 12E11. As to the kind of experiment: Biacore; R&D hIL23.
A further experiment concerns the target 124F10. Kind of experiment: Biacore; R&D hIL23.
A further experiment deals with 12A11. Kind of experiment: Biacore; R&D hIL23.
A further experiment has as its target 12D2. Kind of experiment: Biacore; R&D hIL23.
The target of a further experiment is 124H1. As to the kind of experiment: Biacore; R&D hIL23.
Experiment [2] deals with 124G4. As to the kind of experiment: Biacore; R&D hIL23.
Experiment [3] deals with 124D11. Kind of experiment: Biacore; R&D hIL23.
In a further experiment the target is 12G7. As to the kind of experiment: Biacore; R&D hIL23.
The target of another experiment is 4A11. Kind of experiment: Biacore; R&D hIL23.
The target of experiment [4] is 124B5. Kind of experiment: Biacore; R&D hIL23.
For the next experiment, the target named is 12A4. Kind of experiment: Biacore; R&D hIL23.
In experiment [5] the target is 124D4. Kind of experiment: Biacore; R&D hIL23.
Another experiment addresses 124C3. Kind of experiment: Biacore; R&D hIL23.
Experiment [6] concerns the target 124H5. Kind of experiment: Biacore; R&D hIL23.
In the next experiment the target is 124C5. Kind of experiment: Biacore; R&D hIL23.
For the next experiment, the target named is 4E11. As to the kind of experiment: Biacore; R&D hIL23.
The target of another experiment is 124F7. As to the kind of experiment: Biacore; R&D hIL23.
A further experiment has as its target 12H2. Kind of experiment: Biacore; R&D hIL23.
In a further experiment the target is 124F9. As to the kind of experiment: Biacore; R&D hIL23.
The target in experiment [7] is 80C10. As to the kind of experiment: Biacore.
The next experiment deals with 3C7. Kind of experiment: Biacore.
For the next experiment, the target named is 121C1 = 84D3. As to the kind of experiment: Biacore.
Another experiment has as its target 3H5. As to the kind of experiment: Biacore.
Another experiment addresses 3A7. Kind of experiment: Biacore.
The next experiment deals with 3A11. Kind of experiment: Biacore.
In another experiment the target is 1G8. Kind of experiment: Biacore.
In a further experiment the target is 4F3. As to the kind of experiment: Biacore.
The target of a further experiment is 3G9. As to the kind of experiment: Biacore.
A further experiment deals with 3E1. Kind of experiment: Biacore.
The next experiment has as its target 3A10. As to the kind of experiment: Biacore.
Another experiment has as its target 3D4. As to the kind of experiment: Biacore.
Experiment [8] concerns the target 80C10. Kind of experiment: Biacore. This is another data set of the same source.
A further experiment concerns the target 121C1. As to the kind of experiment: Biacore.
Experiment [9] deals with 124H2. As to the kind of experiment: Biacore.
Experiment [10] concerns the target 124G4. As to the kind of experiment: Biacore.
For experiment [11], the target named is 124D11. Kind of experiment: Biacore.
The target of experiment [12] is 124B5. As to the kind of experiment: Biacore.
For experiment [13], the target named is 124D4. As to the kind of experiment: Biacore.
For experiment [14], the target named is 124H5. As to the kind of experiment: Biacore.

Like-named read-outs stand apart in the source and are kept apart here.

Drawing on patent US20110053865A1 (published 2011), this text covers koff for 3 molecules.

B1: R&D hIL23 (ligand)
chain 1: RAVPGGSSPAWTQCQQLSQKLCTLAWSAHPLVGHMDLREEGDEETTNDVPHIQCGDGCDPQGLRDNSQFCLQRIHQGLIFYEKLLGSDIFTGEPSLLPDSPVGQLHASLLGLSQLLQPEGHHWETQQIPSLSPSQPWQRLLLRFKILRSLQAFVAVAARVFAHGAATLSP
chain 2: IWELKKDVYVVELDWYPDAPGEMVVLTCDTPEEDGITWTLDQSSEVLGSGKTLTIQVKEFGDAGQYTCHKGGEVLSHSLLLLHKKEDGIWSTDILKDQKEPKNKTFLRCEAKNYSGRFTCWWLTTISTDLTFSVKSSRGSSDPQGVTCGAATLSAERVRGDNKEYEYSVECQEDSACPAAEESLPIEVMVDAVHKLKYENYTSSFFIRDIIKPDPPKNLQLKPLKNSRQVEVSWEYPDTWSTPHSYFSLTFCVQVQGKSKREKKDRVFTDKTSATVICRKNASISVRAQDRYYSSSWSEWASVPCS
What is called koff is the rate constant with which the complex falls apart. High values mean fast dissociation, low ones slow dissociation. With B1, the off-rate constant (koff) was 6.55e-05 s⁻¹ with 124G2; 0.000121 s⁻¹ with 12D11; 0.000249 s⁻¹ in the experiment with 124B6; 0.000101 s⁻¹ with 4E7; 0.000261 s⁻¹ with 124E3; 9.08e-05 s⁻¹ with 124D2. The koff with 124H2 [1] amounted to 0.000116 s⁻¹; with 124E5, 0.000187 s⁻¹; in the experiment with 4D2, 0.000111 s⁻¹; in the experiment with 4E3 it was 0.000164 s⁻¹; with 12C10, 0.000289 s⁻¹; with 12F11, 0.000235 s⁻¹. For the same molecule, the koff in the experiment with 12E11 was 0.000237 s⁻¹; with 124F10, 0.000169 s⁻¹; with 12A11, 0.000134 s⁻¹; with 12D2, 0.000101 s⁻¹; with 124H1 it was 0.000158 s⁻¹; with 124G4 [2], 0.000146 s⁻¹. In addition, the koff in the experiment with 124D11 [3] is 0.000259 s⁻¹; with 12G7, 0.000242 s⁻¹; with 4A11, 0.00032 s⁻¹; in the experiment with 124B5 [4], 0.00022 s⁻¹; with 12A4 it was 0.000295 s⁻¹; with 124D4 [5], 0.000348 s⁻¹. Further, the koff was 0.000123 s⁻¹ with 124C3; 0.000246 s⁻¹ in the experiment with 124H5 [6]; 0.000357 s⁻¹ with 124C5; 0.000126 s⁻¹ with 4E11; 0.000382 s⁻¹ in the experiment with 124F7; 0.000126 s⁻¹ with 12H2. For the same molecule, the koff with 124F9 turned out to be 0.00031 s⁻¹.

B2: hIL12 (ligand)
chain 1: RNLPVATPDPGMFPCLHHSQNLLRAVSNMLQKARQTLEFYPCTSEEIDHEDITKDKTSTVEACLPLELTKNESCLNSRETSFITNGSCLASRKTSFMMALCLSSIYEDLKMYQVEFKTMNAKLLMDPKRQIFLDQNMLAVIDELMQALNFNSETVPQKSSLEEPDFYKTKIKLCILLHAFRIRAVTIDRVMSYLNAS
chain 2: B1 chain 2
Consider B2, for which the koff with 80C10 [7] was 0.000578 s⁻¹; in the experiment with 3C7 it was 0.0119 s⁻¹; with 121C1 = 84D3 it was 0.0371 s⁻¹; with 3H5, 0.00375 s⁻¹; in the experiment with 3A7, 0.00588 s⁻¹; in the experiment with 3A11 it was 0.00636 s⁻¹. The koff in the experiment with 1G8 was determined as 0.000779 s⁻¹; in the experiment with 4F3 it was 0.00255 s⁻¹; with 3G9 it was 0.00768 s⁻¹; in the experiment with 3E1, 0.00956 s⁻¹; with 3A10, 0.00353 s⁻¹; with 3D4, 0.00714 s⁻¹. For the same molecule, the figures for the koff with 80C10 [8] and with 121C1 were 0.000578 s⁻¹ and 0.0371 s⁻¹, respectively.

B3: R&D mIL23 (ligand)
chain 1: VPRSSSPDWAQCQQLSRNLCMLAWNAHAPAGHMNLLREEEDEETKNNVPRIQCEDGCDPQGLKDNSQFCLQRIRQGLAFYKHLLDSDIFKGEPALLPDSPMEQLHTSLLGLSQLLQPEDHPRETQQMPSLSSSQQWQRPLLRSKILRSLQAFLAIAARVFAHGAATLTEPLVPTA
chain 2: MWELEKDVYVVEVDWTPDAPGETVNLTCDTPEEDDITWTSDQRHGVIGSGKTLTITVKEFLDAGQYTCHKGGETLSHSHLLLHKKENGIWSTEILKNFKNKTFLKCEAPNYSGRFTCSWLVQRNMDLKFNIKSSSSSPDSRAVTCGMASLSAEKVTLDQRDYEKYSVSCQEDVTCPTAEETLPIELALEARQQNKYENYSTSFFIRDIIKPDPPKNLQMKPLKNSQVEVSWEYPDSWSTPHSYFSLKFFVRIQRKKEKMKETEEGCNQKGAFLVEKTSTEVQCKGGNVCVQAQDRYYNSSCSKWACVPCRVRS
For B3, the koff in the experiment with 124H2 [9] turned out to be 0.00291 s⁻¹; in the experiment with 124G4 [10], 0.00329 s⁻¹; with 124D11 [11] it was 0.00744 s⁻¹; in the experiment with 124B5 [12] it was 0.00105 s⁻¹; with 124D4 [13] it was 0.0029 s⁻¹; with 124H5 [14], 0.00304 s⁻¹.
